Measured values published in patent US10047131B2, “Peptides and combination of peptides for use in immunotherapy against ovarian cancer and other cancers” (immatics biotechnologies GmbH, priority 2015, dated 2018).

What follows are substances tested against HLA-A*02:01 (Homo sapiens, UniProt P04439, D140Y/D185E/D98H/E176V/E277Q/G131W/G231S/I119V/I121R/I166T/I218V/L300P/L318F/N151K/N90K/P208A/P217A/Q86G/Q94H/R138H/R169H/T345S) (assay: MHC binding assay (UV-ligand exchange, ELISA of exchange yield)). Conditions: binding to HLA-A*02:01, UV-ligand exchange.
Summary of the method: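 ELISA of β2m retained on streptavidin-captured, 100-fold diluted complexes (HRP anti-β2m, TMB, 450 nm) gives the yield. Complexes come from UV-triggered exchange of a photocleavable placeholder peptide for the candidate, which must bind to stop complex dissociation.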

Substance	Peptide exchange (MHC class I binding score, peptide exchange yield)
257 (SIFSAFLSV; listed as Homo sapiens) [compound 257]	“+++” (≥50 = +++)
258 (ELAERVPAI; listed as Homo sapiens) [compound 258]	“++” (≥20% = ++)
261 (YVLEFLEEI; listed as Homo sapiens) [compound 261]	“++” (≥20% = ++)
262 (LLWGDLIWL; listed as Homo sapiens) [compound 262]	“+++” (≥50 = +++)
263 (LLVSNLDFGV; listed as Homo sapiens) [compound 263]	“+++” (≥50 = +++)
265 (LLFGGTKTV; listed as Homo sapiens) [compound 265]	“++” (≥20% = ++)
266 (KITDTLIHL; listed as Homo sapiens) [compound 266]	“+++” (≥50 = +++)
267 (ALQDFLLSV; listed as Homo sapiens) [compound 267]	“+++” (≥50 = +++)
270 (LLLDEEGTFSL; listed as Homo sapiens) [compound 270]	“++” (≥20% = ++)
275 (YLVYILNEL; listed as Homo sapiens) [compound 275]	“++” (≥20% = ++)
276 (ALFTFSPLTV; listed as Homo sapiens) [compound 276]	“+++” (≥50 = +++)
280 (VLPDPEVLEAV; listed as Homo sapiens) [compound 280]	“+++” (≥50 = +++)
281 (ILRESTEEL; listed as Homo sapiens) [compound 281]	“+++” (≥50 = +++)
283 (ALYIGDGYVIHLA; listed as Homo sapiens) [compound 283]	“+++” (≥50 = +++)
284 (ILLSQTTGV; listed as Homo sapiens) [compound 284]	“+++” (≥50 = +++)
289 (VLLEIEDLQV; listed as Homo sapiens) [compound 289]	“++++” (≥75% = ++++)
296 (FMEGAIIYV; listed as Homo sapiens) [compound 296]	“+++” (≥50 = +++)
297 (VLADIELAQA; listed as Homo sapiens) [compound 297]	“+++” (≥50 = +++)
298 (VMITKLVEV; listed as Homo sapiens) [compound 298]	“+++” (≥50 = +++)
299 (YLLETSGNL; listed as Homo sapiens) [compound 299]	“+++” (≥50 = +++)
302 (ALLQEGEVYSA; listed as Homo sapiens) [compound 302]	“+++” (≥50 = +++)
303 (AILPQLFMV; listed as Homo sapiens) [compound 303]	“++++” (≥75% = ++++)
307 (ALPVSLPQI; listed as Homo sapiens) [compound 307]	“+++” (≥50 = +++)
308 (SQYSGQLHEV; listed as Homo sapiens) [compound 308]	“+++” (≥50 = +++)
309 (GLFDGVPTTA; listed as Homo sapiens) [compound 309]	“+++” (≥50 = +++)
310 (FLVDTPLARA; listed as Homo sapiens) [compound 310]	“++++” (≥75% = ++++)
311 (RLYTGMHTV; listed as Homo sapiens) [compound 311]	“+++” (≥50 = +++)

Now from value to substance:

Peptide exchange (MHC class I binding score, peptide exchange yield)	Substance
“+++” (≥50 = +++)	254 (TLLAFIMEL; listed as Homo sapiens) [compound 254]
“+++” (≥50 = +++)	255 (VLASYNLTV; listed as Homo sapiens) [compound 255]
“+++” (≥50 = +++)	256 (FLPPEHTIVYI; listed as Homo sapiens) [compound 256]
“+++” (≥50 = +++)	264 (SLQEQLHSV; listed as Homo sapiens) [compound 264]
“++” (≥20% = ++)	269 (RVLEVGALQAV; listed as Homo sapiens) [compound 269]
“+++” (≥50 = +++)	271 (LVYPLELYPA; listed as Homo sapiens) [compound 271]
“+++” (≥50 = +++)	272 (ALGNTVPAV; listed as Homo sapiens) [compound 272]
“++” (≥20% = ++)	273 (NLFQSVREV; listed as Homo sapiens) [compound 273]
“++” (≥20% = ++)	274 (SLLFSLFEA; listed as Homo sapiens) [compound 274]
“++” (≥20% = ++)	277 (LLPPLESLATV; listed as Homo sapiens) [compound 277]
“++” (≥20% = ++)	278 (QLLDVVLTI; listed as Homo sapiens) [compound 278]
“++” (≥20% = ++)	279 (ALWGGTQPLL; listed as Homo sapiens) [compound 279]
“+++” (≥50 = +++)	282 (LLADVVPTT; listed as Homo sapiens) [compound 282]
“+++” (≥50 = +++)	285 (QLLHVGVTV; listed as Homo sapiens) [compound 285]
“+++” (≥50 = +++)	286 (YLFPGIPEL; listed as Homo sapiens) [compound 286]
“+++” (≥50 = +++)	287 (FLNEFFLNV; listed as Homo sapiens) [compound 287]
“+++” (≥50 = +++)	288 (NLINEINGV; listed as Homo sapiens) [compound 288]
“+++” (≥50 = +++)	295 (VLDRESPNV; listed as Homo sapiens) [compound 295]
“+++” (≥50 = +++)	300 (ALLGQTFSL; listed as Homo sapiens) [compound 300]
“+++” (≥50 = +++)	301 (FLVEDLVDSL; listed as Homo sapiens) [compound 301]
“+++” (≥50 = +++)	304 (MTLGQIYYL; listed as Homo sapiens) [compound 304]
“++++” (≥75% = ++++)	305 (SIANFSEFYV; listed as Homo sapiens) [compound 305]
“+++” (≥50 = +++)	306 (ALVNVQIPL; listed as Homo sapiens) [compound 306]
